One molecule from article PMC3477590 (Molecular cell, 2012) can be followed below.

The assay deals with minimally biotinylated GLMN (wild-type) (human, UniProt Q92990 1-594, minimally biotinylated). Briefly: SPR. (In general: SPR reads the build-up and loss of mass on a sensor chip optically.)
minimally biotinylated GLMN (wild-type), sequence (Q92990 whole entry): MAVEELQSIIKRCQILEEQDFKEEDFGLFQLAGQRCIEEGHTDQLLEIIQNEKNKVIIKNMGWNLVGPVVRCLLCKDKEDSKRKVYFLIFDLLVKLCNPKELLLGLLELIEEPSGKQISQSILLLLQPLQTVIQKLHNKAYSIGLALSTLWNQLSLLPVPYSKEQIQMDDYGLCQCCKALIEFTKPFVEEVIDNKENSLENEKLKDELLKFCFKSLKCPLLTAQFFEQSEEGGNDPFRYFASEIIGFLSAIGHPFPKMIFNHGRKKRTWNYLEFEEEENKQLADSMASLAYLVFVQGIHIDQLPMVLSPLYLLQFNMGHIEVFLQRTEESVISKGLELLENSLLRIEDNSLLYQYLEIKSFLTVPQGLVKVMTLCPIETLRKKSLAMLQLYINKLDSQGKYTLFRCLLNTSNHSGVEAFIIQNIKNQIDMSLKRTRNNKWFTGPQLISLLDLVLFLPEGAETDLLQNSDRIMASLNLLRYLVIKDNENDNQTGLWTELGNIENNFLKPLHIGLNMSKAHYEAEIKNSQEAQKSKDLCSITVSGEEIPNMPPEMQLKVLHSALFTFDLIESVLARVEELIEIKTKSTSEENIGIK

B1: isolated RBX1 RING domain (domain or fragment)
chain: not shown
B1: the equilibrium dissociation constant (Kd) came to 38.6 nM.

The Kd is the concentration at which binding is half-saturated. Low readings indicate tighter binding, high ones weaker binding.
